The source of these data is patent US10472401B2, “Peptides and combination of peptides for use in immunotherapy against ovarian cancer and other cancers” (immatics biotechnologies GmbH, priority 2015, dated 2019).

For this test, the target named is HLA-A*02:01 (Homo sapiens, UniProt P04439, D140Y/D185E/D98H/E176V/E277Q/G131W/G231S/I119V/I121R/I166T/I218V/L300P/L318F/N151K/N90K/P208A/P217A/Q86G/Q94H/R138H/R169H/T345S). Kind of test: MHC binding assay (UV-ligand exchange, ELISA of stabilized MHC complexes). Particulars: MHC class I binding score; binding to HLA-A*02:01 ranged by peptide exchange yield (UV-ligand exchange, ELISA). An outline of the steps:
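Binding scored as exchange yield, detected via β2m of stabilized complexes in an HRP/TMB ELISA read at 450 nm after streptavidin capture of 100-fold diluted monomers for 1 h at 37 °C. Complexes came from UV irradiation cleaving a photolabile peptide, exchanged for the candidate.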
(In an ELISA, binding on a coated surface is turned into a signal by an enzyme label.)
“550 (FLYDEIEAEVNL; listed as Homo sapiens) [compound 550]”: the Peptide exchange result is on record as “″+++″ (≥50% = +++)”.
Next, “551 (KLYESLLPFA; listed as Homo sapiens) [compound 551]”: “″+++″ (≥50% = +++)”; “552 (GLLDLPFRVGV; listed as Homo sapiens) [compound 552]”: “″++++″ (≥75% = ++++)”; “553 (SLLNQDLHWSL; listed as Homo sapiens) [compound 553]”: “″++++″ (≥75% = ++++)”.
The entry for “554 (LLMPSSEDLLL; listed as Homo sapiens) [compound 554]” is “″+++″ (≥50% = +++)”.
The entry for “555 (YVLEGLKSV; listed as Homo sapiens) [compound 555]” is “″+++″ (≥50% = +++)”; for “556 (FLTDLEDLTL; listed as Homo sapiens) [compound 556]” it is “″+++″ (≥50% = +++)”.
Regarding “557 (KLYDDMIRL; listed as Homo sapiens) [compound 557]”, the Peptide exchange result is “″+++″ (≥50% = +++)”.
For the substance “558 (GLLENIPRV; listed as Homo sapiens) [compound 558]”, the Peptide exchange entry is recorded as “″+++″ (≥50% = +++)”.
As to “559 (VTVPPGPSL; listed as Homo sapiens) [compound 559]”, the Peptide exchange result is reported as “″++″ (≥20% = ++)”.
Next, “560 (ALWDIETGQQTTT; listed as Homo sapiens) [compound 560]”: “″+++″ (≥50% = +++)”; “561 (YLQLTQSEL; listed as Homo sapiens) [compound 561]”: “″+++″ (≥50% = +++)”; “562 (YLEELPEKLKL; listed as Homo sapiens) [compound 562]”: “″+++″ (≥50% = +++)”.
The entry for “563 (WLLPYNGVTV; listed as Homo sapiens) [compound 563]” is “″+++″ (≥50% = +++)”.
The entry for “564 (TVTNAVVTV; listed as Homo sapiens) [compound 564]” is “″+++″ (≥50% = +++)”; for “565 (ALQETPTSV; listed as Homo sapiens) [compound 565]” it is “″++″ (≥20% = ++)”.
Turning to “566 (VIADGGIQNV; listed as Homo sapiens) [compound 566]”, the Peptide exchange entry is given as “″++″ (≥20% = ++)”.
As to “567 (SLLPLDDIVRV; listed as Homo sapiens) [compound 567]”, the Peptide exchange entry is listed as “″+++″ (≥50% = +++)”.
Next, “568 (TLYDIAHTPGV; listed as Homo sapiens) [compound 568]”: “″++++″ (≥75% = ++++)”; “569 (KLVDRTWTL; listed as Homo sapiens) [compound 569]”: “″+++″ (≥50% = +++)”.
Next, “570 (ALANQIPTV; listed as Homo sapiens) [compound 570]”: “″++″ (≥20% = ++)”.
The entry for “571 (LLLTTIPQI; listed as Homo sapiens) [compound 571]” is “″+++″ (≥50% = +++)”.
For the substance “572 (ALADLIEKELSV; listed as Homo sapiens) [compound 572]”, the Peptide exchange result is listed as “″+++″ (≥50% = +++)”.
The entry for “573 (ILVANAIVGV; listed as Homo sapiens) [compound 573]” is “″+++″ (≥50% = +++)”; for “574 (YLLQEPPRTV; listed as Homo sapiens) [compound 574]” it is “″++″ (≥20% = ++)”.
The entry for “575 (YLISQVEGHQV; listed as Homo sapiens) [compound 575]” is “″+++″ (≥50% = +++)”; for “576 (ILLNNSGQIKL; listed as Homo sapiens) [compound 576]” it is “″++++″ (≥75% = ++++)”.
Turning to “577 (VMFEDGVLMRL; listed as Homo sapiens) [compound 577]”, the Peptide exchange result is on record as “″+++″ (≥50% = +++)”.
In the case of “578 (FLDPGGPMMKL; listed as Homo sapiens) [compound 578]”, the Peptide exchange result is “″+++″ (≥50% = +++)”.
Consider “579 (NLMEMVAQL; listed as Homo sapiens) [compound 579]”, for which the Peptide exchange result is listed as “″++″ (≥20% = ++)”.
The entry for “580 (LLMENAERV; listed as Homo sapiens) [compound 580]” is “″++″ (≥20% = ++)”; for “582 (TLCDVILMV; listed as Homo sapiens) [compound 582]” it is “″+++″ (≥50% = +++)”; for “583 (ILANDGVLLAA; listed as Homo sapiens) [compound 583]” it is “″+++″ (≥50% = +++)”.
The entry for “584 (ALAEVAAMENV; listed as Homo sapiens) [compound 584]” is “″+++″ (≥50% = +++)”; for “585 (ALWDLAADKQTL; listed as Homo sapiens) [compound 585]” it is “″++++″ (≥75% = ++++)”.
As to “586 (KLKPGDLVGV; listed as Homo sapiens) [compound 586]”, the Peptide exchange result was “″+++″ (≥50% = +++)”.
Next, “587 (VMNDRLYAI; listed as Homo sapiens) [compound 587]”: “″+++″ (≥50% = +++)”; “588 (SLLPLSHLV; listed as Homo sapiens) [compound 588]”: “″+++″ (≥50% = +++)”.
Next, “589 (KLYPQLPAEI; listed as Homo sapiens) [compound 589]”: “″+++″ (≥50% = +++)”; “590 (SLIEKLWQT; listed as Homo sapiens) [compound 590]”: “″++″ (≥20% = ++)”.
On to “591 (SMAELDIKL; listed as Homo sapiens) [compound 591]”, for which the Peptide exchange entry is recorded as “″+++″ (≥50% = +++)”.
Next, “592 (RLLSAAENFL; listed as Homo sapiens) [compound 592]”: “″+++″ (≥50% = +++)”; “593 (GLPRFGIEMV; listed as Homo sapiens) [compound 593]”: “″+++″ (≥50% = +++)”; “594 (IMLKGDNITL; listed as Homo sapiens) [compound 594]”: “″+++″ (≥50% = +++)”.
The entry for “595 (VLLSIYPRV; listed as Homo sapiens) [compound 595]” is “″+++″ (≥50% = +++)”; for “596 (ALLDQTKTLAESAL; listed as Homo sapiens) [compound 596]” it is “″+++″ (≥50% = +++)”.
Turning to “597 (KLLEGQVIQL; listed as Homo sapiens) [compound 597]”, the Peptide exchange result is listed as “″+++″ (≥50% = +++)”.
Next, “598 (FLFPHSVLV; listed as Homo sapiens) [compound 598]”: “″+++″ (≥50% = +++)”; “599 (YLLNDASLISV; listed as Homo sapiens) [compound 599]”: “″+++″ (≥50% = +++)”; “600 (ALAAPDIVPAL; listed as Homo sapiens) [compound 600]”: “″+++″ (≥50% = +++)”.
Next, “601 (SAFPFPVTV; listed as Homo sapiens) [compound 601]”: “″+++″ (≥50% = +++)”.
Take “602 (YLLEQIKLIEV; listed as Homo sapiens) [compound 602]”: the Peptide exchange entry is recorded as “″++++″ (≥75% = ++++)”.
“604 (SILDRDDIFV; listed as Homo sapiens) [compound 604]”: the Peptide exchange entry was “″+++″ (≥50% = +++)”.
As for “605 (KLYEAVPQL; listed as Homo sapiens) [compound 605]”, the Peptide exchange entry was “″+++″ (≥50% = +++)”.
The entry for “606 (ALWETEVYI; listed as Homo sapiens) [compound 606]” is “″+++″ (≥50% = +++)”; for “607 (RLYSGISGLEL; listed as Homo sapiens) [compound 607]” it is “″+++″ (≥50% = +++)”.
For the substance “608 (SLLSVSHAL; listed as Homo sapiens) [compound 608]”, the Peptide exchange entry was “″+++″ (≥50% = +++)”.
As to “609 (ALWKQLLEL; listed as Homo sapiens) [compound 609]”, the Peptide exchange result is given as “″+++″ (≥50% = +++)”.
Next, “610 (LLAPTPYIIGV; listed as Homo sapiens) [compound 610]”: “″+++″ (≥50% = +++)”; “611 (YLLDDGTLVV; listed as Homo sapiens) [compound 611]”: “″++++″ (≥75% = ++++)”.
Next, “612 (YLYNEGLSV; listed as Homo sapiens) [compound 612]”: “″+++″ (≥50% = +++)”; “613 (RLLPPGAVVAV; listed as Homo sapiens) [compound 613]”: “″+++″ (≥50% = +++)”; “614 (LLLPDQPPYHL; listed as Homo sapiens) [compound 614]”: “″+++″ (≥50% = +++)”.
On to “615 (VLPPDTDPA; listed as Homo sapiens) [compound 615]”, for which the Peptide exchange entry was “″++″ (≥20% = ++)”.
The entry for “616 (VLIDEVESL; listed as Homo sapiens) [compound 616]” is “″+++″ (≥50% = +++)”.
The entry for “617 (ALMYESEKVGV; listed as Homo sapiens) [compound 617]” is “″+++″ (≥50% = +++)”; for “618 (VLFDSESIGIYV; listed as Homo sapiens) [compound 618]” it is “″+++″ (≥50% = +++)”; for “619 (ALQDRVPLA; listed as Homo sapiens) [compound 619]” it is “″+++″ (≥50% = +++)”.
The entry for “620 (KLLNKIYEA; listed as Homo sapiens) [compound 620]” is “″++++″ (≥75% = ++++)”; for “621 (VLMDRLPSLL; listed as Homo sapiens) [compound 621]” it is “″++++″ (≥75% = ++++)”.
